Reference: publication PMC8292379

Target: Human mitochondrial chaperonin mHsp60 (human), P10809
Experiment: cryo-EM structure; ~9 mg/ml mHsp60 on Quantifoil holey carbon grids, Titan Krios 300 kV, C7 symmetry imposed, combined map at 3.4 Å; 2D class averages show seven-fold symmetry
Details: remark: other sources report otherwise

B1: Human mitochondrial chaperonin mHsp60, P10809 27-573 (natural protein)
chain: AKDVKFGADARALMLQGVDLLADAVAVTMGPKGRTVIIEQSWGSPKVTKDGVTVAKSIDLKDKYKNIGAKLVQDVANNTNEEAGDGTTTATVLARSIAKEGFEKISKGANPVEIRRGVMLAVDAVIAELKKQSKPVTTPEEIAQVATISANGDKEIGNIISDAMKKVGRKGVITVKDGKTLNDELEIIEGMKFDRGYISPYFINTSKGQKCEFQDAYVLLSEKKISSIQSIVPALEIANAHRKPLVIIAEDVDGEALSTLVLNRLKVGLQVVAVKAPGFGDNRKNQLKDMAIATGGAVFGEEGLTLNLEDVQPHDLGKVGEVIVTKDDAMLLKGKGDKAQIEKRIQEIIEQLDVTTSEYEKEKLNERLAKLSDGVAVLKVGGTSDVEVNEKKDRVTDALNATRAAVEEGIVLGGGCALLRCIPALDSLTPANEDQKIGIEIIKRTLKIPAMTIAKNAGVEGSLIVEKIMQSSSEVGYDAMAGDFVNMVEKGIIDPTKVVRTALLDAAGVASLLTTAEVVVTEIPKEEKDPGMGAMGGMGGGMGGGMF
- stoichiometry N: 7
